One data set deals with PSA (UniProt P07288 25-261). Description: electrochemistry (on-chip bead-bound aptamer); 1 mg/mL; no significant signal (<15%); Buffer C: 100 mM Tris-HCl pH 7.4, 100 mM NaCl, 1 mM MgCl2, 5 mM KCl; room temperature (optimized conditions stated as pH 7.5, 100 mM salt). Particulars: protein: commercial; label: 5'-ferrocene; 3'-biotin (on streptavidin magnetic beads); hairpin.
A further data set deals with IL-6 (UniProt P05231 30-212). Description: electrochemistry (on-chip bead-bound aptamer); 1 ng/mL; no significant signal (<15%); Buffer C: 100 mM Tris-HCl pH 7.4, 100 mM NaCl, 1 mM MgCl2, 5 mM KCl; room temperature (optimized conditions stated as pH 7.5, 100 mM salt). The following applies: protein: commercial; label: 5'-ferrocene; 3'-biotin (on streptavidin magnetic beads); hairpin.

The target in another data set is TNF-α (UniProt P01375 77-233). The data set is described as above. The following applies: protein: commercial; chain copies: 3; label: 5'-ferrocene; 3'-biotin (on streptavidin magnetic beads); hairpin.
Another data set concerns the target interferon gamma (IFN-γ) (human, UniProt P01579 24-166). As to the kind of experiment: electrochemistry (SWV, on-chip bead-bound aptamer); 1 mM Mg2+, 5 mM K+; from calibration-curve midpoint (100 pg/mL) (so in the source); Buffer C: 100 mM Tris-HCl pH 7.4, 100 mM NaCl, 1 mM MgCl2, 5 mM KCl; room temperature (optimized conditions stated as pH 7.5, 100 mM salt). The following applies: protein: recombinant; chain copies: 2; label: 5'-ferrocene; 3'-biotin (on streptavidin magnetic beads); hairpin.

Sequence of IL-6 (P05231 30-212): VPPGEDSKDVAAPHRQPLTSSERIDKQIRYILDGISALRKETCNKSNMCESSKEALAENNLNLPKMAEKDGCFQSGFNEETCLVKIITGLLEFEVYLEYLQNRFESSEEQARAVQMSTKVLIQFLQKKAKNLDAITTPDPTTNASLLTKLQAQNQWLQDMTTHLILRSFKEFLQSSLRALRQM
Sequence of TNF-α (P01375 77-233): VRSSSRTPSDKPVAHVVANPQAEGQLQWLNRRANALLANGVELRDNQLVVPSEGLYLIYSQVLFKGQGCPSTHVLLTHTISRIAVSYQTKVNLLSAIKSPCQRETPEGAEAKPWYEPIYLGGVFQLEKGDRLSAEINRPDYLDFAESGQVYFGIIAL
Sequence of interferon gamma (IFN-γ) (P01579 24-166): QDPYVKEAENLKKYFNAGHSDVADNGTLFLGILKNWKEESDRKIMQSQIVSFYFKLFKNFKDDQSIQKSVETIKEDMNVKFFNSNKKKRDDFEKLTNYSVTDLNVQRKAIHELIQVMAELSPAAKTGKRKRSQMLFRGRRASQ
Sequence of PSA (P07288 25-261): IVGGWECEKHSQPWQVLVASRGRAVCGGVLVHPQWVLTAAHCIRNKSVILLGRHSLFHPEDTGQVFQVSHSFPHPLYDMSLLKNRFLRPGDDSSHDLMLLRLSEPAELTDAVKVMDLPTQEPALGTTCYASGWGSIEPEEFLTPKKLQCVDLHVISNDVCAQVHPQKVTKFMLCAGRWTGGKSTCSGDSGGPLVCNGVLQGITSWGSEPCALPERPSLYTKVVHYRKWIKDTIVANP

With GGGGTTGGTTGTGTTGGGTGTTGTGTCCAACCCC (structured_DNA) [Fc-labeled IFN-γ hairpin aptamer (MB-aptamer)], the binding result in the data set with PSA, with IL-6 and with TNF-α was “no binding” throughout. Also, the Ka with interferon gamma (IFN-γ) was about 2.1e+10 M⁻¹.

For the origin of these results see PMC6799845, “On-chip structure-switching aptamer-modified magnetic nanobeads for the continuous monitoring of interferon-gamma ex vivo”.
